Measured values published in PMC4520773 (Journal of molecular biology, 2015).
“And” between values parts separate entries of the source, which are not always exact repeats. Identical values can stand only once.

Assays:
[1] = biological target: T1, huntingtin exon 1-thioredoxin (TRX) fusion protein with 16 glutamines (Homo sapiens, UniProt P42858, strain); assay: small angle X-ray scattering
[2] = biological target: T2, huntingtin exon 1-thioredoxin (TRX) fusion protein with 39 glutamines (Homo sapiens, UniProt P42858, strain); assay: SEC
T2 sequence (P42858 whole entry, looked up, change not shown, the tested form may be a part): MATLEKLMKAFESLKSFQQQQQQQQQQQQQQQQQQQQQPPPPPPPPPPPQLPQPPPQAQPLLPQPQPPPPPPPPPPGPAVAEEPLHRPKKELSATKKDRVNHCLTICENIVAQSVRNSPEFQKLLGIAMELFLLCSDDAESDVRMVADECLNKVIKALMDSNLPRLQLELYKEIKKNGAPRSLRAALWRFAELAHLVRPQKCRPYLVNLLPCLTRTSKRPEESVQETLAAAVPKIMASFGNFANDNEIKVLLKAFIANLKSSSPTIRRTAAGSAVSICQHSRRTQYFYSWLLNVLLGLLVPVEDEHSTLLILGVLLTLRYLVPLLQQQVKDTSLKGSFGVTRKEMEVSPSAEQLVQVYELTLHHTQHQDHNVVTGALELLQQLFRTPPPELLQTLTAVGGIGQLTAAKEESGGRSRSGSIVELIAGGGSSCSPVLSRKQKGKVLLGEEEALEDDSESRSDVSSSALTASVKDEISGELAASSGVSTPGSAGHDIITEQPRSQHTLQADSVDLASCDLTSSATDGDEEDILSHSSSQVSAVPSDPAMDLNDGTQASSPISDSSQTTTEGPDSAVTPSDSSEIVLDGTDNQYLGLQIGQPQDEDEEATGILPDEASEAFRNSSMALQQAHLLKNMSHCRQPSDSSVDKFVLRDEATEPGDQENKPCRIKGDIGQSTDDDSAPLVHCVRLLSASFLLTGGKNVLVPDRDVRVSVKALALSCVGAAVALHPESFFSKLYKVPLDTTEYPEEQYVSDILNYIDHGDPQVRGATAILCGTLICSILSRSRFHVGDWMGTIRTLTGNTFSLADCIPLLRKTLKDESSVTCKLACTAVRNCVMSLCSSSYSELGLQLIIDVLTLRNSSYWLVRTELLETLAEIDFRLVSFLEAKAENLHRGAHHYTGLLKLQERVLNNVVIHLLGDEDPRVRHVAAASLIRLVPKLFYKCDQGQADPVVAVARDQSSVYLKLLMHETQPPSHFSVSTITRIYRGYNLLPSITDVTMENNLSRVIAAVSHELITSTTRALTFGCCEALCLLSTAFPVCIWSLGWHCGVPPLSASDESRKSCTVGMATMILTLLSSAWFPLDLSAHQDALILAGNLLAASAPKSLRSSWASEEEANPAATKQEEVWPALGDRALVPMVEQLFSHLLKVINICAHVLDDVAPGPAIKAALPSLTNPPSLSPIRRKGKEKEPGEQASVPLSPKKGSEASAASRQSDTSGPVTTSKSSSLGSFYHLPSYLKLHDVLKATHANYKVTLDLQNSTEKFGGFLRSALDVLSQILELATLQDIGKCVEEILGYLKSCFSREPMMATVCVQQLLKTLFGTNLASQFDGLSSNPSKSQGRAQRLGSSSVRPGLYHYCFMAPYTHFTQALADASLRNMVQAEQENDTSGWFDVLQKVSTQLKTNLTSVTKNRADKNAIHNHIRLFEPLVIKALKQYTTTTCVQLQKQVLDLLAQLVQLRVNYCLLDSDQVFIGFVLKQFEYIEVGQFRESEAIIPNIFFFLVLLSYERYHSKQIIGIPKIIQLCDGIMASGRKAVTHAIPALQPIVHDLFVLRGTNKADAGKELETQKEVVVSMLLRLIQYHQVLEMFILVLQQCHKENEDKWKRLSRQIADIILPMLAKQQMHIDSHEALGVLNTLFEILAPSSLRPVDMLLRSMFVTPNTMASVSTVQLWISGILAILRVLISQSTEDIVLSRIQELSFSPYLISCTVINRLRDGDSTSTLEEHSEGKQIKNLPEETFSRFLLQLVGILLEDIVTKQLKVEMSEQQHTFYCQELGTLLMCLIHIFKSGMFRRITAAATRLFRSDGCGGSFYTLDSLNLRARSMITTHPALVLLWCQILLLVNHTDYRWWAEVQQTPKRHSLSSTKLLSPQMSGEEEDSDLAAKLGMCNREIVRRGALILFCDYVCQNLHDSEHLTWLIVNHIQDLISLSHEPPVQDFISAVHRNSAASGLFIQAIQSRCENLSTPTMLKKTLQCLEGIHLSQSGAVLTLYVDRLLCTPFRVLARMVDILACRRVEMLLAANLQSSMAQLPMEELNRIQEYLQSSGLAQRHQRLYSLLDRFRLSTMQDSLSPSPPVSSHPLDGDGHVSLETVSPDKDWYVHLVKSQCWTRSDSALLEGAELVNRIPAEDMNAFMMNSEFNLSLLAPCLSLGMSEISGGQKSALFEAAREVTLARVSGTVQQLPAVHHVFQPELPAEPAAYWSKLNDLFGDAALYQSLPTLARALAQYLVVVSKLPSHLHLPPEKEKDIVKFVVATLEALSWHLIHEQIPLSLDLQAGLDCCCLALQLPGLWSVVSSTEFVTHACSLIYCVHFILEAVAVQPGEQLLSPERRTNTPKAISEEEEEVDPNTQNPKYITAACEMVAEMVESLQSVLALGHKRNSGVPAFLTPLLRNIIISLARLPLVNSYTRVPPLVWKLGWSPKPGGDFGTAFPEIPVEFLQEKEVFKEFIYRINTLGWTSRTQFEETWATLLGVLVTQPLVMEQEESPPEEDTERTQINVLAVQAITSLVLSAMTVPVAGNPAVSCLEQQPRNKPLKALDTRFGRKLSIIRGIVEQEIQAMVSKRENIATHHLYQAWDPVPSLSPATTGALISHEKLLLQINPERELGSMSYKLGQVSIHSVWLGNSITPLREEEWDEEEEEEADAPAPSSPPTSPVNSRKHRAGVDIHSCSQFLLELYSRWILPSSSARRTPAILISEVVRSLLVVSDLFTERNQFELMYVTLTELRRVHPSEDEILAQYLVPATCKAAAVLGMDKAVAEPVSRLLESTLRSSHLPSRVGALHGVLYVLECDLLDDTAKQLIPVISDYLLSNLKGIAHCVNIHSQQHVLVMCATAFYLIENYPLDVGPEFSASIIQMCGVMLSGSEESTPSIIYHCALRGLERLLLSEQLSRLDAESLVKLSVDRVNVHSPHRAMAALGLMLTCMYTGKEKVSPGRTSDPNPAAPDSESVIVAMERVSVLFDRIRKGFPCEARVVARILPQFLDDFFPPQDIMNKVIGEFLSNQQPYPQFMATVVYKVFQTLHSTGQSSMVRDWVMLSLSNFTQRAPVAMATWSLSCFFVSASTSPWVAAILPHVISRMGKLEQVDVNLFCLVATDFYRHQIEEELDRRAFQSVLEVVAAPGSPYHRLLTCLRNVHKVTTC

[3] = biological target: T2, huntingtin exon 1-thioredoxin (TRX) …; assay: SEC-MALS
[4] = biological target: T1, huntingtin exon 1-thioredoxin (TRX) …; assay: SEC-MALS

T1 sequence (P42858 whole entry, looked up, change not shown, the tested form may be a part): as above

stoichiometry N [1]: 1 Fab:HD-16Q
N at 5 μM 3B5H10 Fab in the equilibration buffer (ratio with flat baseline) [2]: ~2.6 Fab:HD-39Q
stoichiometry N [2]: 3 Fab:HD-39Q
stoichiometry N [3]: > 1 3B5H10 Fab:HD-39Q and < 2 3B5H10 Fab:HD-39Q
stoichiometry N [4]: 1 3B5H10 Fab:HD-16Q
B1: 3B5H10 Fab (Fab, V domains shown)
VH: QIQLVQSGPELKKPGETVKISCKASGYTFTTYGMSWVKQAPGKGFEWMGWINTYSGVPTYVDDFKGRFAFSLETSASTAYLQINNLKNEDTAVYFCARGGDNYLWFAYWGQGTLVTVSA
VL: QLVLTQSSSASFSLGASAKLTCTLNSQHSTYTIEWYQQQPLKPPKYVMELKKDGSHSTGDGIPDRFSGSSSGADRYLSISNIQPEDEAIYICGVGDTIKEQFVYVFGGGTKVTVL
